Data from patent publication US20240294569A1, “MODULATORS OF SORTILIN ACTIVITY” (Insusense ApS, priority 2021, published 2024).
Peptide text beside a SMILES is read from it.

Target: 6his-Sortilin (human) (UniProt Q99523)
Assay: SPA, displacement of [3H]-neurotensin from 6his-Sortilin
Settings: not given

| IC50 [nM] | Molecule |
| --- | --- |
| 60 | (S)-2-((S)-2-((S)-3-(4-Hydroxyphenyl)-2-((S)-pyrrolidine-2-carboxamido)propanamido)-3-(1H-indol-3-yl)propanamido)-5,5-dimethylhexanoic acid (peptide) |
| 70 | (2S)-5,5-Dimethyl-2-((3S)-3-methyl-2-((S)-2-((S)-pyrrolidine-2-carboxamido)propanamido)pentanamido)hexanoic acid (peptide) |
| 370 | (S)-2-((S)-2-((S)-3-(4-Hydroxyphenyl)-2-((S)-pyrrolidine-2-carboxamido)propanamido)-3-(1-methyl-1H-imidazol-4-yl)propanamido)-5,5-dimethylhexanoic acid (peptide) |
| 100 | (S)-2-((2S,3S)-2-((S)-3-(4-Hydroxyphenyl)-2-((S)-piperazine-2-carboxamido)propanamido)-3-methylpentanamido)-5,5-dimethylhexanoic acid (peptide) |
| 60 | (S)-2-((S)-2-((S)-5-Amino-5-oxo-2-((S)-pyrrolidine-2-carboxamido)pentanamido)-3-(thiazol-4-yl)propanamido)-5,5-dimethylhexanoic acid (peptide) |

More lines, now with the values behind:

| Molecule | IC50 [nM] |
| --- | --- |
| (S)-2-((2S,3S)-2-((S)-3-(4-Hydroxyphenyl)-2-((R)-pyrrolidine-3-carboxamido)propanamido)-3-methylpentanamido)-5,5-dimethylhexanoic acid (peptide) | 180 |
| (S)-2-((S)-2-((S)-3-(4-Hydroxyphenyl)-2-((S)-pyrrolidine-2-carboxamido)propanamido)-3-(pyridin-3-yl)propanamido)-5,5-dimethylhexanoic acid (peptide) | 90 |
| (S)-2-((2S,3S)-2-((S)-3-(4-Hydroxyphenyl)-2-((R)-piperazine-2-carboxamido)propanamido)-3-methylpentanamido)-5,5-dimethylhexanoic acid (peptide) | 110 |
| (S)-2-((S)-2-((S)-3-(4-Hydroxyphenyl)-2-((S)-pyrrolidine-2-carboxamido)propanamido)-3-(thiazol-4-yl)propanamido)-5,5-dimethylhexanoic acid (peptide) | 70 |
| (S)-2-((2S,3S)-2-((S)-3-(4-Hydroxyphenyl)-2-((S)-pyrrolidine-2-carboxamido)propanamido)-3-methylpentanamido)-5,5-dimethylhexanoic acid (peptide) | 90 |
| (S)-2-((S)-2-((S)-3-(4-Hydroxyphenyl)-2-((S)-pyrrolidine-2-carboxamido)propanamido)-3-(1-methyl-1H-imidazol-5-yl)propanamido)-5,5-dimethylhexanoic acid.di-formic acid (peptide) | 100 |
| (S)-2-((2S,3S)-2-((S)-3-(4-Hydroxyphenyl)-2-((R)-morpholine-2-carboxamido)propanamido)-3-methylpentanamido)-5,5-dimethylhexanoic acid (peptide) | 90 |
| (S)-2-((S)-2-((S)-4-Amino-4-oxo-2-((S)-pyrrolidine-2-carboxamido)butanamido)-3-(thiazol-4-yl)propanamido)-5,5-dimethylhexanoic acid (peptide) | 90 |
| (S)-2-((S)-2-((S)-3-(4-Hydroxyphenyl)-2-((S)-pyrrolidine-2-carboxamido)propanamido)-3-(pyridin-4-yl)propanamido)-5,5-dimethylhexanoic acid (peptide) | 200 |
| (S)-2-((2S,3S)-2-((S)-3-(4-Hydroxyphenyl)-2-((R)-morpholine-3-carboxamido)propanamido)-3-methylpentanamido)-5,5-dimethylhexanoic acid (peptide) | 100 |
| (S)-2-((S)-2-((S)-3-(4-Hydroxyphenyl)-2-((S)-pyrrolidine-2-carboxamido)propanamido)-3-(thiophen-3-yl)propanamido)-5,5-dimethylhexanoic acid (peptide) | 140 |
| (S)-2-((2S,3S)-2-((S)-3-(4-Hydroxyphenyl)-2-((S)-morpholine-2-carboxamido)propanamido)-3-methylpentanamido)-5,5-dimethylhexanoic acid (peptide) | 70 |
| (S)-2-((2S,3S)-2-((S)-3-(4-Hydroxyphenyl)-2-((S)-pyrrolidine-3-carboxamido)propanamido)-3-methylpentanamido)-5,5-dimethylhexanoic acid (peptide) | 150 |

Target: T1, hSortilin (Homo sapiens, UniProt Q99523)
T1 sequence (Q99523 78-831): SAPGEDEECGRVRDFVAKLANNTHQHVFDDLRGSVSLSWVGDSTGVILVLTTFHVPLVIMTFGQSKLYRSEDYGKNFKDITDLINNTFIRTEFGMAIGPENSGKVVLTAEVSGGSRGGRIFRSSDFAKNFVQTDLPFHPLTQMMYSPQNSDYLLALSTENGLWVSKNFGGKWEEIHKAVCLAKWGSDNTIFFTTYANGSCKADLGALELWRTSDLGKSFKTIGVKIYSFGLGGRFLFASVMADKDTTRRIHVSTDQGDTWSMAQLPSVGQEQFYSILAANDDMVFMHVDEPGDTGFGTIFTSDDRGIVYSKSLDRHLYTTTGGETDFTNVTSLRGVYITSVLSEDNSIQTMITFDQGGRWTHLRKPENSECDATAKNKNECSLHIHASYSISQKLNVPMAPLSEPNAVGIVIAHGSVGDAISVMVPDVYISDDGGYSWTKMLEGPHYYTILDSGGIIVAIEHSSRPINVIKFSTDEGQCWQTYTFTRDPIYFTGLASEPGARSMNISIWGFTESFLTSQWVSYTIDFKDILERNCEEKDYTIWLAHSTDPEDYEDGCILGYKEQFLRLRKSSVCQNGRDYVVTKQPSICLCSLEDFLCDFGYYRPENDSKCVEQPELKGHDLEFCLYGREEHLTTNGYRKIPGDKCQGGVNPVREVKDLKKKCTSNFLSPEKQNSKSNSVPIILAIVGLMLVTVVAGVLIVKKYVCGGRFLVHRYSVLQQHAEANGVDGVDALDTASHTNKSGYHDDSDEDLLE
Assay: Neurotensin scintillation proximity assay (displacement of [3H]-neurotensin binding)
Settings: displacement of 5 nM [3H]-neurotensin from 150 nM 6his-Sortilin; average of at least 2 determinations; read-out: IC50 [3H]Neurotensin SPA
Description: The data of exemplified compounds of the invention tested in a Neurotensin (NTS) scintillation proximity assay (SPA). NTS, which is a 13 amino acid neuropeptide, is a sortilin ligand. The IC50 is a measure of the amount of the compound required to inhibit the binding of NTS to sortilin by 50%.
Compound affinity was determined by measuring the displacement of [^3H]-neurotensin binding to hSortilin in SPA format. Total volume of 40 μl in 50 mM HEPES pH 7.4 assay buffer containing 100 mM NaCl, 2.0 mM CaCl2, 0.1% BSA and 0.1% Tween-20. Compound pre-incubation for 30 minutes at room temperature with 150 nM of 6his-Sortilin before 5 nM [3H]-Neurotensin and Ni chelate imaging beads (Perkin Elmer) were added, after 6 hours the plate was read on a ViewLux with 360 s exposure time. Dose-response evaluation of compounds was performed with 8 concentrations of drugs (covering 3 decades). IC50 values were calculated by nonlinear regression using the sigmoid concentration-response (variable slope) using CDD Vault software. All values reported are average of at least 2 determinations.

| IC50 [nM] | Molecule |
| --- | --- |
| 80 | CC[C@H](C)[C@H](NC(=O)CNC(=O)[C@@H]1CCCN1)C(=O)N[C@@H](CCC(C)(C)C)C(=O)O [Example 16, (2S)-5,5-Dimethyl-2-((3S)-3-methyl-2-(2-((S)-pyrrolidine-2-carboxamido)acetamido)pentanamido) hexanoic acid] (HELM PEPTIDE1{P.G.I.[CC(C)(C)CC[C@H](N[*:1])C(=O)O]}$$$$V2.0) |
| 3170 | CC[C@H](C)[C@H](NC(=O)[C@H](Cc1ccc(O)cc1)NC(=O)[C@@H]1CCCO1)C(=O)N[C@@H](CCC(F)(F)F)C(=O)O [Example 1, (S)-5,5,5-Trifluoro-2-((2S,3S)-2-((S)-3-(4-hydroxyphenyl)-2-((S)-tetrahydrofuran-2-carboxamido)propanamido)-3-methylpentanamido)pentanoic acid] |
| 90 | CC(C)(C)CC[C@H](NC(=O)[C@H](Cc1cccnc1)NC(=O)[C@H](Cc1ccc(O)cc1)NC(=O)[C@@H]1CCCN1)C(=O)O [Example 6, (S)-2-((S)-2-((S)-3-(4-Hydroxyphenyl)-2-((S)-pyrrolidine-2-carboxamido)propan amido)-3-(pyridin-3-yl)propanamido)-5,5-dimethylhexanoic acid] (HELM PEPTIDE1{P.Y.[O=C([C@H](Cc1cccnc1)N[*:1])[*:2]].[CC(C)(C)CC[C@H](N[*:1])C(=O)O]}$$$$V2.0) |

Further lines, the molecule ahead of its results:

| Molecule | IC50 [nM] |
| --- | --- |
| CC[C@H](C)[C@H](NC(=O)[C@H](Cc1ccc(O)cc1)NC(=O)[C@H]1CNCCN1)C(=O)N[C@@H](CCC(C)(C)C)C(=O)O [Example 18, (S)-2-((2S,3S)-2-((S)-3-(4-Hydroxyphenyl)-2-((R)-piperazine-2-carboxamido)propan amido)-3-methylpentanamido)-5,5-dimethylhexanoic acid] (HELM PEPTIDE1{[O=C([C@H]1CNCCN1)[*:2]].Y.I.[CC(C)(C)CC[C@H](N[*:1])C(=O)O]}$$$$V2.0) | 110 |
| CC(C)(C)CC[C@H](NC(=O)[C@H](Cc1ccccn1)NC(=O)[C@H](Cc1ccc(O)cc1)NC(=O)[C@@H]1CCCN1)C(=O)O [Example 5, (S)-2-((S)-2-((S)-3-(4-Hydroxyphenyl)-2-((S)-pyrrolidine-2-carboxamido)propanamido)-3-(pyridin-2-yl)propanamido)-5,5-dimethylhexanoic acid] (HELM PEPTIDE1{P.Y.[O=C([C@H](Cc1ccccn1)N[*:1])[*:2]].[CC(C)(C)CC[C@H](N[*:1])C(=O)O]}$$$$V2.0) | 270 |
| CC(C)(C)CC[C@H](NC(=O)[C@H](Cc1cscn1)NC(=O)[C@H](CC(N)=O)NC(=O)[C@@H]1CCCN1)C(=O)O [Example 10, (S)-2-((S)-2-((S)-4-Amino-4-oxo-2-((S)-pyrrolidine-2-carboxamido)butan-amido)-3-(thiazol-4-yl)propanamido)-5,5-dimethylhexanoic acid] (HELM PEPTIDE1{P.N.[O=C([C@H](Cc1cscn1)N[*:1])[*:2]].[CC(C)(C)CC[C@H](N[*:1])C(=O)O]}$$$$V2.0) | 90 |
| CC[C@H](C)[C@H](NC(=O)[C@H](Cc1ccc(O)cc1)NC(=O)[C@H]1CCNC1)C(=O)N[C@@H](CCC(C)(C)C)C(=O)O [Example 20, (S)-2-((2S,3S)-2-((S)-3-(4-Hydroxyphenyl)-2-((S)-pyrrolidine-3-carboxamido)propan amido)-3-methylpentanamido)-5,5-dimethylhexanoic acid] | 150 |
| Cn1cncc1C[C@H](NC(=O)[C@H](Cc1ccc(O)cc1)NC(=O)[C@@H]1CCCN1)C(=O)N[C@@H](CCC(C)(C)C)C(=O)O [Example 32, (S)-2-((S)-2-((S)-3-(4-Hydroxyphenyl)-2-((S)-pyrrolidine-2-carboxamido)propan amido)-3-(1-methyl-1H-imidazol-5-yl)propanamido)-5,5-dimethylhexanoic acid.di-formic acid] (HELM PEPTIDE1{P.Y.[Cn1cncc1C[C@H](N[*:1])C(=O)[*:2]].[CC(C)(C)CC[C@H](N[*:1])C(=O)O]}$$$$V2.0) | 100 |
